Reference: patent publication US20250188154A1

Tests used:
[1] = molecular target: SARS-CoV-2 spike D614G on pseudovirus (VRC7480.D614G) (SARS-CoV-2) (UniProt P0DTC2); test: cell-based or functional assay
[2] = molecular target: SARS-CoV-2 D614G live virus spike (SARS-CoV-2) (UniProt P0DTC2); test: cell-based or functional assay

| Substance | Pseudovirus IC50 [1] | Pseudovirus IC80 [1] | Pseudovirus MPI [1] | Pseudovirus neutralization IC50 [1] | Pseudovirus neutralization IC80 [1] | Pseudovirus neutralization MPI [1] | live virus neutralization IC50 [2] |
| --- | --- | --- | --- | --- | --- | --- | --- |
| DH1042 (antibody) | 0.011 µg/mL | 0.053 µg/mL | 100% | 0.011 µg/mL | 0.053 µg/mL | 100% |  |
| DH1047 (antibody) |  |  |  | 0.09 µg/mL | 0.36 µg/mL | 100% | 0.059 µg/mL |
